Results taken from patent US8809001B2, “High throughput assays for inhibitors and activators of PAQR receptors” (University of Florida Research Foundation, Inc., priority 2007, dated 2014).

Assays:
AdipoR1 = molecular target: T1, AdipoR1 (Homo sapiens, UniProt Q96A54); test: FET3-lacZ (pFET3-397) reporter repression in yeast expressing AdipoR1; format: cell-based; conditions: low levels of AdipoR1 (0.02% galactose)
T1 construct: expressed in transfected cells; host or cells: Saccharomyces cerevisiae BY4742, GAL1-driven pYES260 plasmid
T1 sequence (Q96A54 1-375): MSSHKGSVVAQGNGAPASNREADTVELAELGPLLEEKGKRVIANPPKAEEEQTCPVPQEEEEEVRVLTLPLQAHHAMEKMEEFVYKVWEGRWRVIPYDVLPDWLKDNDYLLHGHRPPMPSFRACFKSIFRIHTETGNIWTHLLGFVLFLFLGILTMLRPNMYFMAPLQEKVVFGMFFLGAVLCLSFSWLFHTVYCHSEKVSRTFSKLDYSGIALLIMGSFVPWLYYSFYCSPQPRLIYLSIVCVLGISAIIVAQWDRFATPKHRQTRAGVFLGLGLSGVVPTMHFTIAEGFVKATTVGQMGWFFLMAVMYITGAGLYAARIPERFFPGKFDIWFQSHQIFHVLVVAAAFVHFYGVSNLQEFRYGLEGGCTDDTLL
Text: IZH1-4 were cloned into pRS316-GAL1 via gap repair as previously described (Lyons et al., 2004). The triple hemaglutinin epitope (3×HA) tagged construct of the IZH2 gene was generated by replacing the ZRC1 promoter and open reading frame in the YCpZRC1-HA plasmid (MacDiarmid et al., 2002) with those of IZH2. This was accomplished by gap repair of Age I-digested YCpZRC1-HA to generate pIZH2-3×HA. This construct has the IZH2 gene driven by its native promoter and retains the ZRC1 terminator sequence. The native IZH2 promoter was then exchanged with the GAL1 promoter using gap repair of pIZH2-3×HA plasmids cut with EcoN I. AdipoR1 and AdipoR2 were amplified from cDNAs obtained from OpenBiosystems (Accession #: BC010743 and BC051858, respectively). PCR products were cloned into NcoI/BamHI digested pYES260 vector (Melcher, 2000) by gap repair allowing for GAL1-driven expression. Plasmids containing GAL1-driven the TAP (Tandem Affinity Purification) tagged NRG1 and NRG2 constructs were purchased from OpenBiosystems. […]
(§1) Assays and growth conditions. […] Cells were allowed to grow to mid-log phase at which time the activity of the FET3 gene was monitored using a FET3-lacZ promoter-reporter construct. lacZ activities are presented as a percentage of activity seen in untreated cells expressing the appropriate empty expression vector control. […]

AdipoR2 = test: FET3-lacZ (pFET3-397) reporter repression in yeast expressing AdipoR2; format: cell-based, human
AdipoR2, sequence (Q86V24 76-386 limits assumed): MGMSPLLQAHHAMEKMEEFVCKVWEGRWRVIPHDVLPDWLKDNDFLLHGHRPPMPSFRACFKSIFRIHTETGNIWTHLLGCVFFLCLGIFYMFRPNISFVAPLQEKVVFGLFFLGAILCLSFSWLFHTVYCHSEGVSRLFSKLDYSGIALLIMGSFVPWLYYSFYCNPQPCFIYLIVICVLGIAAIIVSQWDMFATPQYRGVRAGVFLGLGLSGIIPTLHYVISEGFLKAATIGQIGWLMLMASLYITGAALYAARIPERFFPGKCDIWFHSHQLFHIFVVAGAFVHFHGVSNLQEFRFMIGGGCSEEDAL
Text: IZH1-4 were cloned into pRS316-GAL1 via gap repair as previously described (Lyons et al., 2004). The triple hemaglutinin epitope (3×HA) tagged construct of the IZH2 gene was generated by replacing the ZRC1 promoter and open reading frame in the YCpZRC1-HA plasmid (MacDiarmid et al., 2002) with those of IZH2. This was accomplished by gap repair of Age I-digested YCpZRC1-HA to generate pIZH2-3×HA. This construct has the IZH2 gene driven by its native promoter and retains the ZRC1 terminator sequence. The native IZH2 promoter was then exchanged with the GAL1 promoter using gap repair of pIZH2-3×HA plasmids cut with EcoN I. AdipoR1 and AdipoR2 were amplified from cDNAs obtained from OpenBiosystems (Accession #: BC010743 and BC051858, respectively). PCR products were cloned into NcoI/BamHI digested pYES260 vector (Melcher, 2000) by gap repair allowing for GAL1-driven expression. Plasmids containing GAL1-driven the TAP (Tandem Affinity Purification) tagged NRG1 and NRG2 constructs were purchased from OpenBiosystems.
Most experiments were performed in a defined EDTA-containing medium known as low iron medium (LIM) (Eide et al., 1992). Iron-deficiency and repletion were generated by adding either 1 μM or 1 mM of FeCl3, respectively, to LIM. 2% galactose was used to fully induce GAL1-driven gene overexpression. Total sugar concentration was maintained at 2% by the addition of raffinose in those experiments in which the % galactose was modulated to decrease expression levels. Cells were allowed to grow to mid-log phase in LIM and β-galactosidase assays on permeabilized yeast were performed as previously described (Lyons et al., 2000). […]
as §1

FET3 = test: FET3-lacZ reporter in wild type yeast carrying empty expression plasmid; format: cell-based, Saccharomyces cerevisiae; conditions: no human PAQR
Text: Assays and growth conditions. Strains were maintained using standard protocol and grown in synthetic defined (SD) media with the appropriate amino acids to match the auxotrophies of the individual strains. Low Iron Medium (LIM) contains EDTA to limit iron-bioavailability and its composition has been previously described (Kupchak et al., 2007). […] In brief, overnights of cells grown in SD-glucose media were re-inoculated into iron-deficient LIM to induce the expression of FET3. 2% galactose was used as a carbon source to induce full expression of PAQR genes driven by the GAL1 promoter, while 0.05% galactose/1.95% raffinose was used for reduced PAQR expression. All ligands were added to the growth medium upon re-inoculation into LIM. For experiments in which steroids were added as ligands, steroids were added from ethanol stocks and “untreated” controls are actually treated with an equal volume of ethanol to control for vehicle effects. Cells were allowed to grow to mid-log phase at which time the activity of the FET3 gene was monitored using a FET3-lacZ promoter-reporter construct. lacZ activities are presented as a percentage of activity seen in untreated cells expressing the appropriate empty expression vector control. For individual experiments, each data point has been done in triplicate and the error bars represent +/−1 standard deviation. All experiments were performed at least three times and a representative experiment is shown. EC50 values were obtained using the web-based BioDataFit software using sigmoidal curve-fitting. (web site changbioscience.com/stat/ec50.html)

B1: Adiponectin: insulin-sensitizing hormone, agonist of the human adiponectin receptors AdipoR1 and AdipoR2 (protein, UniProt Q15848 19-244, looked up)
Adiponectin: ETTTQGPGVLLPLPKGACTGWMAGIPGHPGHNGAPGRDGRDGTPGEKGEKGDPGLIGPKGDIGETGVPGAEGPRGFPGIQGRKGEPGEGAYVYRSAFSVGLETYVTIPNMPIRFTKIFYNQQNHYDGSTGKFHCNIPGLYYFAYHITVYMKDVKVSLFKKDKAMLFTYDQYQENNVDQASGSVLLHLEVGDQVWLQVYGEGERNGLYADNDNDSTFTGFLLYHDTN
- pFET3-397 repression by adiponectin (AdipoR1): repressed in a dose-dependent manner
- EC50 (AdipoR2; AdipoR2, FET3 repression in iron-deficient LIM): 2.4 pM
- pFET3-397 repression by adiponectin (AdipoR2; AdipoR2 in 2% galactose): repressed in a dose-dependent manner
- effect of ligand on FET3 in cells carrying empty expression plasmid (FET3): did not respond
